Data taken from patent publication US6602687B1, “DNA encoding human ciliary neurotrophic factor and method for producing the protein encoded thereby” (Regeneron Pharmaceuticals, Inc., priority 1989, dated 2003).

Assays:
[1] = tested on: E18-19 rat hippocampal neurons; assay: Counts of NSE-, GAD-, calbindin- and acetylcholinesterase-positive cells in hippocampal cultures; assay type: cell-based
Experimental: Hippocampi were dissected from E18-19 rat embryos of Sprague-Dawley rats, and collected in F10 medium. The tissues were minced, rinsed twice with F10 medium (Gibco) and trypsinized with 0.25% trypsin (Gibco) for 20 minutes at 37° C. Trypsin was inactivated by the addition of a serum-containing medium composed of minimal essential medium (MEM) supplemented with fetal calf serum (FCS, 10%), glutamine (2 mM), penicillin (25 U/ml) and streptomycin (25 ug/ml). Dissociated cells obtained by gentle trituration were collected and centrifuged at low speed (500 rpm) for 30 seconds. The centrifugation was repeated twice, and the cell pellets were then resuspended in serum-containing medium. The cells were then plated onto 6 mm wells or 35 mm dishes that were coated with polyornithine (10 ug/ml) and laminin (10 ug/ml). In most of the experiments, the cells were plated at a low density of approximately 71,000 cells/cm^2. Five to six hours following the plating of cells, medium was changed to a serum-free medium containing 1% N3 and penicillin-streptomycin (25 units/ml and 25 ug/ml, respectively), at which time CNTF was added. Medium was changed every three to four days, with re-addition of the factor.
Cells were fixed with 4% paraformaldehyde for 30 minutes at room temperature, washed with PBS. For GAD staining, cells were permeabilized by sequential rinsing with 50%, 70% and 50% ethanol. The cultures were blocked by sequential rinsing with PBS containing 5% normal rabbit serum for one hour, and incubated with sheep anti-GAD antibody 1440 at a 1:6000 dilution) overnight at 4° C. Following three rinses with PBS, cells were then incubated with biotinylated rabbit anti-sheep antibody at a 1:400 dilution for at least 90 minutes at room temperature. For GABA staining, cells were permeabiized with Triton X-100 (0.25%) in Tris-HCl (0.1M, pH 7.3), and blocked with 10% normal goat serum for 90 minutes, prior to incubation with rabbit anti-GABA antibody (1:5000) ovenight at 4° C. Following three rinses with PBS, cells were then incubated with biotinylated goat anti-rabbit antibody at a 1:200 dilution for at least 90 minutes at room temperature. GAG- or GABA imminoreactive cells were visualized by using the Vectastain ABC kit (Vector Labs).
Following fixing with 4% paraformaldehyde, cells were blocked with 10% normal goat serum (NGS) in PBS containing 0.1% Triton X-100. The cells were then incubated with the primary antibody (rabbit anti-NSE, 1:5000) overnight at 4° C. The cells were then incubated with the secondary antibody (goat anti-rabit, 1:200 dilution) for at least 90 minutes at room temperature. NSE-immunopositive cells were visualized using the Vectastain ABC kit (Vector Labs).
Cells were rinsed twice with PBS, and fixed with 4% paraformaldehyde for 30 minutes at room temperature. […]

[2] = tested on: Ventral spinal cord neurons; assay: Choline acetyltransferase (CAT) activity in ventral spinal cord cultures; assay type: cell-based, rat
Experimental: Sprague-Dawley rats (HSD or Zivic-Miller) were used for all experiments. Pregnant rats (E14) were sacrificed as described in 10.1.1.
Spinal cords were removed aseptically from rat embryos as described in 10.1.2. The cord tissues were minced into small pieces and incubated in 0.1% trypsin (GIBCO) and 0.01% deoxyribonuclease type 1 (Sigma) at 37° C. for 20 minutes. Trypsin solution was then removed, rinsed and replaced with medium consisting of 45% Eagle's minimum essential medium (MEM), 45% Ham's nutrient mixture F12 (F12), 5% fetal calf serum (GIBCO), 5% horse serum (GIBCO) glutamine (2 mM), penicillin G (0.5 U/ml), and streptomycin (0.5 ug/ml). This was then mechanically dissociated twice by gentle trituration through a Pasteur pipet in the same medium, and the supernatants were pooled and filtered through a nylon filter (Nitex, Tetko; 40 um). Total cell number yielded was determined by hemocytometer counting in the presence of trypan blue. Dissociated ventral cells were then plated at a density of approximately 50,000 cells/cm^2 on dishes coated with poly-L-ornithine (10 ug/ml) and laminin (5 ug/ml). Treatments were given on the day of plating, except for delayed addition experiments in which treatments were given on days 2 or 6. Cultures were maintained at 37° C. in 95% air/5% CO2 atmosphere at nearly 100% relative humidity. Culture medium was changed every 3 to 4 days. A mitotic inhibitor, cytosine arabinoside (Ara C; 0.5 uM), was added on day 2 to reduce the number of nonneuronal cells. On day 7, cells were harvested for measurements of choline acetyltransferase (CAT; Fonnum, 1975 J. Neurochem. 24:407-409) and protein (Bradford, 1976, Annal. Biochem. 72:248-254) levels or fixed in 4% paraformaldehyde for NF assay (Doherty et al., 1984, J. Neurochem. 42:1116-1122) and immunocytochemistry. Some cultures were grown in defined medium consisting of 50% F12 and 50% MEM, glutamine (2 mM), insulin (5 ug/ml), transferrin (100 ug/ml), progesterone (20 nM), putrescine (10 uM), and sodium selenite (30 nM) (Bottenstein and Sato, 1979, PNAS 76:514-517). In these cultures sera-containing medium was replaced with defined medium on day 1.
Cultures were harvested by lysing the cells in a 20 mM Tris-HCl (pH 8.6) solution containing 0.1% Triton X-100. Two microliters of the cell lysate was removed and assayed for CAT activity according to the micro-Fonnum procedure (Fonnum, 1975, J. Neurochem. 24:407-409). The final substrate composition consisted of 0.2 mM [1-^14C] Acetyl-CoA (NEN, 54.4 mCi/mmol), 300 mM NaCl, 8 mM choline bromide, 20 mM EDTA, and 0.1 mM neostigmine in 50 mM NaH2PO4 (pH 7.4) buffer. At these enzyme and substrate concentrations, the enzymatic reaction was linear for 90-120 minutes. The specificity of the induction for CAT was tested by the addition of a specific inhibitor of CAT activity, N-hydroxyethyl-4-(1-napthylvinyl) pyridium (HNP), during the assay (White and Cavallito, 1970, J. Neurochem. 17:1579-1589).

[3] = recombinant rat CNTF 10 ng/ml, 8 days

B1: CNTF: ciliary neurotrophic factor; recombinant rat CNTF in Sections 10, 15, 17, purified rat sciatic nerve CNTF in Section 11; see endpoint conditions (protein, UniProt P20294 1-200, looked up)
Ciliary neurotrophic factor: MAFAEQTPLTLHRRDLCSRSIWLARKIRSDLTALMESYVKHQGLNKNINLDSVDGVPVASTDRWSEMTEAERLQENLQAYRTFQGMLTKLLEDQRVHFTPTEGDFHQAIHTLMLQVSAFAYQLEELMVLLEQKIPENEADGMPATVGDGGLFEKKLWGLKVLQELSQWTVRSIHDLRVISSHQMGISALESHYGAKDKQM
[1]; [3]
  increase in number of GAD-positive neurons: 2.3 fold
  increase in number of NSE-positive neurons: 2.2 fold
[1]; recombinant rat CNTF 10 ng/ml, low-density cultures
  increase in calbindin-immunopositive cells: 3 fold
[1]; recombinant rat CNTF, after 8 days in culture
  increase in number of acetylcholinesterase positive cells versus controls: approximately 17 fold
[2]
  time after treatment at which increase in CAT activity was apparent: 3 days
[2]; AraC 0.5 uM or serum-free medium, CNTF 10 ng/ml
  effect on CAT activity with glia reduced to about 5% of total cells: remained unchanged
[2]; CNTF 10 ng/ml
  increase in CAT activity over the increase in number of cholinergic neurons: 1.6 fold
[2]; CNTF 10 ng/ml added on day 2, treated 7 further days
  increase in CAT activity, delayed addition at day 2: 1.2 fold
[2]; CNTF 10 ng/ml added on day 6, treated 7 further days
  effect on CAT activity, delayed addition at day 6: can no longer influence CAT activity
[2]; CNTF 10 ng/ml, NGF 50 ng/ml, FGF 50 ng/ml at plating, after 7 days in culture
  increase in CAT activity: 4.0 fold
[2]; day 7
  CNTF concentration of maximal response in CAT activity: 1 ng/mL
